Patent US8648039B2, “Use of alpha-lactalbumin for regulations of glycemia” (Compagnie Laitiere Europeene, priority 2006, dated 2014)

Columns and labels:
[1] = tested on: male rats of the Wistar Hannover strain; test: Postprandial glycemia with glutathione synthesis inhibited by buthionine sulfoximine; assay type: in vivo; conditions: buthionine sulfoximine injected one hour before the meal; acute
Method: In order to confirm the role of glutathione in the regulation of glycemia and the advantage of α-lactalbumin as a cysteine source from the viewpoint of synthesis of this compound, we used a glutathione-depleted rat model, by inhibiting the synthesis of this compound with buthionine sulfoximine treatment. In these animals, glucose tolerance and insulin sensitivity were measured, and also various parameters related to the oxidative stress state. The replenishing of glutathione stores and the change in the regulation of glycemia were measured in response to diets with various levels of enrichment in α-lactalbumin and cysteine supplementation.
The methodology of example 2, limited to the acute part of the study, was repeated. Four groups of 10 male rats of the Wistar Hannover strain were operated on, after their reception, in order to put in place a venous catheter. This catheter is introduced via the left jugular, descended to the level of the vena cava, and its proximal part interconnects at the cranial level, where it is secured in place so as to allow blood samples to be taken, in the desired amount, from a conscious animal.
One week later, the rats were divided up into 4 groups subjected to the sucrose-rich normal protein meals C0, C1, C2 and alphalac. An injection of buthionine sulfoximine, a […], was given beforehand (one hour before the meal). […]

[2] = tested on: IRS1 (insulin receptor substrate 1) protein; test: Activation of the insulin signaling pathway (IRS1 immunoprecipitation, Western blotting) at 6 weeks; assay type: in vivo, male rats of the Wistar Hannover strain; conditions: muscle; 6 weeks of diet
Method: Four groups of 8 male rats of the Wistar Hannover strain were subjected for 6 weeks to the same sucrose-containing diets as those used in experiments 2 and 3 (P14 containing sucrose, C1, C2 and alphalac). An additional group of 8 rats, this being a non-sucrose control group, fed with a diet P14 containing 14 energy % of total milk proteins without sucrose, was added. This group constitutes the “normal” or “healthy” positive control in the evaluation of the insulin signaling pathway modifications related to the high-sucrose diet.
At 6 weeks, the anesthetized rats receive a dose of 0.750 mU.kg^−1 of insulin, directly injected into the vena cava. This injection makes it possible to light up the insulin signaling pathway and to evaluate the differences in activation between the various groups. 5 min after the injection, the muscle and the liver are removed, ground in a lysis buffer and directly immunoprecipitated with an antibody which recognizes the IRS1 (insulin receptor substrate 1) protein. The immunoprecipitated samples are then loaded onto a gel and then blotted onto a membrane (Western blotting technique). The membranes are successively hybridized with an antiphosphotyrosine antibody (tyrosine phosphorylation of the IRS protein is the first step in the insulin signaling pathway) and then an anti-total IRS1 antibody (FIG. 10).

B1: α-lactalbumin (protein, UniProt P00711 20-142, looked up)
Alpha-lactalbumin: EQLTKCEVFRELKDLKGYGGVSLPEWVCTTFHTSGYDTQAIVQNNDSTEYGLFQINNKIWCKDDQNPHSSNICNISCDKFLDDDLTDDIMCVKKILDKVGINYWLAHKALCSEKLDQWLCEKL
notes: milk serum protein; bovine form 14.2 kD, 123 amino acids
B1 was tested, and the “influence of inhibition of glutathione synthesis on the effect on postprandial glycemia” value [1] was “does not modify” and the “expression of the IRS protein” value [2] was “attenuated”.
